Measured values as given in IntAct's records for PubMed 24968893.

B1: Autophagy-related protein 19 (Saccharomyces cerevisiae), P35193 (parent)
chain: MNNSKTNQQMNTSMGYPLTVYDECNKFQLIVPTLDANIMLWCIGQLSLLNDSNGCKHLFWQPNDKSNVRILLNNYDYGHLFKYLQCQRKCSVYIGEGTLKKYNLTISTSFDNFLDLTPSEEKESLCREDAHEDPVSPKAGSEEEISPNSTSNVVVSRECLDNFMKQLLKLEESLNKLELEQKVTNKEPNHRISGTIDIPEDRSELVNFFTELKTVKQLEDVFQRYHDYERLSQECDSKTEIASDHSKKETKIEVEPPNERSLQITMNQRDNSLYFQLFNNTNSVLAGNCKLKFTDAGDKPTTQIIDMGPHEIGIKEYKEYRYFPYALDLEAGSTIEIENQYGEVIFLGKYGSSPMINLRPPSRLSAESLQASQEPFYSFQIDTLPELDDSSIISTSISLSYDGDDNEKALTWEEL
partner: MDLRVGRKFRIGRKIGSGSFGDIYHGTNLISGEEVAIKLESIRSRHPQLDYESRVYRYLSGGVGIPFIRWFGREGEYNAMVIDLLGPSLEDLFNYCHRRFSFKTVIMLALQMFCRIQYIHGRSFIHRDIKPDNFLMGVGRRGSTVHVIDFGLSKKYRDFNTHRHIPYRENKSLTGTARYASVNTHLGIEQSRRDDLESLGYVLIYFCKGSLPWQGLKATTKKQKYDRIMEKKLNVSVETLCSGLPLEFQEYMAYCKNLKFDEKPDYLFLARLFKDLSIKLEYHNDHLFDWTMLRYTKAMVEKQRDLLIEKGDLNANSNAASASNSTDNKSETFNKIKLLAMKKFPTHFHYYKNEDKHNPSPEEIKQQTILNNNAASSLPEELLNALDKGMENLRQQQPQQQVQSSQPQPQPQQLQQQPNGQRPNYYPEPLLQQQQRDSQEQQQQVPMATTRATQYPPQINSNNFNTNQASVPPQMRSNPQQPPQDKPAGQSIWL
B2: Autophagy-related protein 19 (Saccharomyces cerevisiae), P35193 (parent)
chain: B1 chain
partner: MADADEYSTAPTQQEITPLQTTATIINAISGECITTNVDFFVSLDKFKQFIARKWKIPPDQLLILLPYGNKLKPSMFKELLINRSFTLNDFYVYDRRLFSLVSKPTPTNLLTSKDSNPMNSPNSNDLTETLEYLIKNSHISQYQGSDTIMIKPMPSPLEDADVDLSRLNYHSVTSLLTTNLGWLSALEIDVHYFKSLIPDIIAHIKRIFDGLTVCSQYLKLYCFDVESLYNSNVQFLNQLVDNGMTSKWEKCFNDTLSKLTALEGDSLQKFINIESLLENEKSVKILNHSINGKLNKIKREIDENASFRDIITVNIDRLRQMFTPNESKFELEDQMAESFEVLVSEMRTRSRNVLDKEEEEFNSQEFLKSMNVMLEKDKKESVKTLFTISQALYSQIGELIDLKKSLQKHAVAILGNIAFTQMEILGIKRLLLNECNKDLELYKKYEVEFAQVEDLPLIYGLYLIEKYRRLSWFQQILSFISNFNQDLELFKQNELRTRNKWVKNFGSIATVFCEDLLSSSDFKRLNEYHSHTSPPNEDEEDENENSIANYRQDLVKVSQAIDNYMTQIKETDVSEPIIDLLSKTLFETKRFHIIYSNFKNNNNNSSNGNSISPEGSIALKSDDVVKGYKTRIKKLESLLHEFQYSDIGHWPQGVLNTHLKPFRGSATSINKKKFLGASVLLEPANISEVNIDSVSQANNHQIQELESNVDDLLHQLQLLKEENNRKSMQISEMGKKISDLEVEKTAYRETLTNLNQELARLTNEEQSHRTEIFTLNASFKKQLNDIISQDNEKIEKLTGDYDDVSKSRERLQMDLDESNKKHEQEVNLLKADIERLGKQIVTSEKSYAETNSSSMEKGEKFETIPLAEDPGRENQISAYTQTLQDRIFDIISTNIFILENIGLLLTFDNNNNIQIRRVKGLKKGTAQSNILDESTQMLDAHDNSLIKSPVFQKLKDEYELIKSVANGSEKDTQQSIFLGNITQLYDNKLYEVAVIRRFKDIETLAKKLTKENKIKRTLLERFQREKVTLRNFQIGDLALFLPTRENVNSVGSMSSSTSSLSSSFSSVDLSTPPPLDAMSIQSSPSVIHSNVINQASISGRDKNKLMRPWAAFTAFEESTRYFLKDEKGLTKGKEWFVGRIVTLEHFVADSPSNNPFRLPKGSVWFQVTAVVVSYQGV
B3: Autophagy-related protein 19 (Saccharomyces cerevisiae), P35193 (parent)
chain: B1 chain
partner: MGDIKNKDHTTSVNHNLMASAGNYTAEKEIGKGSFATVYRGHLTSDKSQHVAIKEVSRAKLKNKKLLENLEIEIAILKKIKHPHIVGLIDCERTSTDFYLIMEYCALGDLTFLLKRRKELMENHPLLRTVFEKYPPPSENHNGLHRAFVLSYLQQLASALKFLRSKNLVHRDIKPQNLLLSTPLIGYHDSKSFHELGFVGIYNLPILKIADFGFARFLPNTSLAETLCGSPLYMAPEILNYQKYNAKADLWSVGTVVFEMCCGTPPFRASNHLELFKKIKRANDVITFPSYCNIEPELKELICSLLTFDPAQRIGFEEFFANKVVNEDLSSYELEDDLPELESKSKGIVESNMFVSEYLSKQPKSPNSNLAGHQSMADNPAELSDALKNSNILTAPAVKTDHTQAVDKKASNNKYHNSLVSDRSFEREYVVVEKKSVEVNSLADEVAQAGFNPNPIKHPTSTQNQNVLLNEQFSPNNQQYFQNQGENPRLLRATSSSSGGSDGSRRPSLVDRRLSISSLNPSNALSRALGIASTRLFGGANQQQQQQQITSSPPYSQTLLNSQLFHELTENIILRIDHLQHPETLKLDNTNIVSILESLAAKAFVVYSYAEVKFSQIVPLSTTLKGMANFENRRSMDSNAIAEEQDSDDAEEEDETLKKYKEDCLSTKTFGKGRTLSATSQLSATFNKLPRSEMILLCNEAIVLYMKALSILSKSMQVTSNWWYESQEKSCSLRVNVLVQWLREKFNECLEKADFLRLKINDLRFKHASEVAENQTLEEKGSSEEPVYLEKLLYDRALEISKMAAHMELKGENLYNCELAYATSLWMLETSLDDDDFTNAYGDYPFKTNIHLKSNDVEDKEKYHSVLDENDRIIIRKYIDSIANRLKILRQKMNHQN
B4: Serine/threonine-protein kinase ATG1 (Saccharomyces cerevisiae), P53104 (parent)
chain: B3 partner
partner: B1 chain

Variants of: B1
Details: with hrr25_yeast HRR25, P29295
MNNSKTNQQMNTSMGYPLTVYDECNKFQLIVPTLDANIMLWCIGQLSLLNDSNGCKHLFWQPNDKSNVRILLNNYDYGHLFKYLQCQRKCSVYIGEGTLKKYNLTISTSFDNFLDLTPSEEKESLCREDAHEDPVSPKAGSEEEISPNSTSNVVVSRECLDNFMKQLLKLEESLNKLELEQKVTNKEPNHRISGTIDIPEDRSELVNFFTELKTVKQLEDVFQRYHDYERLSQECDSKTEIASDHSKKETKIEVEPPNERSLQITMNQRDNSLYFQLFNNTNSVLAGNCKLKFTDAGDKPTTQIIDMGPHEIGIKEYKEYRYFPYALDLEAGSTIEIENQYGEVIFLGKYGSSPMINLRPPSRLSAESLQASQEPFYSFQIDTLPELDDAAIISTAISLSYDGDDNEKALTWEEL [S390A;S391A;S396A] was tested, and the “effect of a mutation on the interaction” value was “disrupting interaction”.

Variants of: B2
Details: with atg11_yeast ATG11, Q12527
In the case of MNNSKTNQQMNTSMGYPLTVYDECNKFQLIVPTLDANIMLWCIGQLSLLNDSNGCKHLFWQPNDKSNVRILLNNYDYGHLFKYLQCQRKCSVYIGEGTLKKYNLTISTSFDNFLDLTPSEEKESLCREDAHEDPVSPKAGSEEEISPNSTSNVVVSRECLDNFMKQLLKLEESLNKLELEQKVTNKEPNHRISGTIDIPEDRSELVNFFTELKTVKQLEDVFQRYHDYERLSQECDSKTEIASDHSKKETKIEVEPPNERSLQITMNQRDNSLYFQLFNNTNSVLAGNCKLKFTDAGDKPTTQIIDMGPHEIGIKEYKEYRYFPYALDLEAGSTIEIENQYGEVIFLGKYGSSPMINLRPPSRLSAESLQASQEPFYSFQIDTLPELDDDDIISTDISLSYDGDDNEKALTWEEL [S390D;S391D;S396D], the “effect of a mutation on the interaction” value is reported as “increasing interaction”.

Variants of: B2
Details: with atg11_yeast ATG11, Q12527
Remark: another data set of the same source
For MNNSKTNQQMNTSMGYPLTVYDECNKFQLIVPTLDANIMLWCIGQLSLLNDSNGCKHLFWQPNDKSNVRILLNNYDYGHLFKYLQCQRKCSVYIGEGTLKKYNLTISTSFDNFLDLTPSEEKESLCREDAHEDPVSPKAGSEEEISPNSTSNVVVSRECLDNFMKQLLKLEESLNKLELEQKVTNKEPNHRISGTIDIPEDRSELVNFFTELKTVKQLEDVFQRYHDYERLSQECDSKTEIASDHSKKETKIEVEPPNERSLQITMNQRDNSLYFQLFNNTNSVLAGNCKLKFTDAGDKPTTQIIDMGPHEIGIKEYKEYRYFPYALDLEAGSTIEIENQYGEVIFLGKYGSSPMINLRPPSRLSAESLQASQEPFYSFQIDTLPELDDAAIISTAISLSYDGDDNEKALTWEEL [S390A;S391A;S396A], the “effect of a mutation on the interaction” value was “disrupting interaction”.

Variants of: B2
Details: with atg11_yeast ATG11, Q12527
Remark: another data set of the same source
MNNSKTNQQMNTSMGYPLTVYDECNKFQLIVPTLDANIMLWCIGQLSLLNDSNGCKHLFWQPNDKSNVRILLNNYDYGHLFKYLQCQRKCSVYIGEGTLKKYNLTISTSFDNFLDLTPSEEKESLCREDAHEDPVSPKAGSEEEISPNSTSNVVVSRECLDNFMKQLLKLEESLNKLELEQKVTNKEPNHRISGTIDIPEDRSELVNFFTELKTVKQLEDVFQRYHDYERLSQECDSKTEIASDHSKKETKIEVEPPNERSLQITMNQRDNSLYFQLFNNTNSVLAGNCKLKFTDAGDKPTTQIIDMGPHEIGIKEYKEYRYFPYALDLEAGSTIEIENQYGEVIFLGKYGSSPMINLRPPSRLSAESLQASQEPFYSFQIDTLPELDDAAIISTAISLSYDGDDNEKALTWEEL [S390A;S391A;S396A] was tested, and the “effect of a mutation on the interaction” value was “disrupting interaction”.

Variants of: B3
Details: with atg1_yeast ATG1, P53104
MNNSKTNQQMNTSMGYPLTVYDECNKFQLIVPTLDANIMLWCIGQLSLLNDSNGCKHLFWQPNDKSNVRILLNNYDYGHLFKYLQCQRKCSVYIGEGTLKKYNLTISTSFDNFLDLTPSEEKESLCREDAHEDPVSPKAGSEEEISPNSTSNVVVSRECLDNFMKQLLKLEESLNKLELEQKVTNKEPNHRISGTIDIPEDRSELVNFFTELKTVKQLEDVFQRYHDYERLSQECDSKTEIASDHSKKETKIEVEPPNERSLQITMNQRDNSLYFQLFNNTNSVLAGNCKLKFTDAGDKPTTQIIDMGPHEIGIKEYKEYRYFPYALDLEAGSTIEIENQYGEVIFLGKYGSSPMINLRPPSRLSAESLQASQEPFYSFQIDTLPELDDAAIISTAISLSYDGDDNEKALTWEEL [S390A;S391A;S396A] was tested, and the “effect of a mutation on the interaction” value was “disrupting interaction”.

Variants of: B3
Details: with atg1_yeast ATG1, P53104
Remark: another data set of the same source
In the case of MNNSKTNQQMNTSMGYPLTVYDECNKFQLIVPTLDANIMLWCIGQLSLLNDSNGCKHLFWQPNDKSNVRILLNNYDYGHLFKYLQCQRKCSVYIGEGTLKKYNLTISTSFDNFLDLTPSEEKESLCREDAHEDPVSPKAGSEEEISPNSTSNVVVSRECLDNFMKQLLKLEESLNKLELEQKVTNKEPNHRISGTIDIPEDRSELVNFFTELKTVKQLEDVFQRYHDYERLSQECDSKTEIASDHSKKETKIEVEPPNERSLQITMNQRDNSLYFQLFNNTNSVLAGNCKLKFTDAGDKPTTQIIDMGPHEIGIKEYKEYRYFPYALDLEAGSTIEIENQYGEVIFLGKYGSSPMINLRPPSRLSAESLQASQEPFYSFQIDTLPELDDDDIISTDISLSYDGDDNEKALTWEEL [S390D;S391D;S396D], the “effect of a mutation on the interaction” value is reported as “disrupting interaction”.

Variants of: B4
Details: with atg19_yeast ATG19, P35193
For D211A, the “effect of a mutation on the interaction” value was “disrupting interaction”.
